# Results published in the supplement of paper PMC9112550, “Optimization of the antimicrobial peptide Bac7 by deep mutational scanning” (BMC Biology, 2022).
# Test system: Escherichia coli TOP10
# Experiment: shrunken log2 fold change of peptide-encoding DNA abundance (4.5 h post-induction vs induction); higher = less antimicrobial activity (less host growth inhibition)
# Details: time post-induction: 4.5 h; library: site-saturation at positions 5, 18, 19, 20
# 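Note: peptides expressed intracellularly from a pBAD plasmid library in pooled LB shake-flask culture, induced with 0.3% L-arabinose, DNA abundance read by NGS, three biological replicates, DESeq2 with apeglm shrinkage.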
row,Sequence,shrunken log2 fold change
1,RRIRGRPPRLPRPRPRPSCQPRP,0.925
2,RRIRDRPPRLPRPRPRPKTLPRP,-0.21
3,RRIRKRPPRLPRPRPRPRKNPRP,0.876
4,RRIRHRPPRLPRPRPRPLGTPRP,-0.129
5,RRIRNRPPRLPRPRPRPVPYPRP,0.0481
6,RRIRTRPPRLPRPRPRPSVQPRP,-0.0749
7,RRIRQRPPRLPRPRPRPEGIPRP,0.0201
8,RRIRIRPPRLPRPRPRPWIPPRP,-0.562
9,RRIRERPPRLPRPRPRPMCAPRP,0.000297
10,RRIRLRPPRLPRPRPRPEVHPRP,0.101
11,RRIRWRPPRLPRPRPRPYENPRP,-0.19
12,RRIRFRPPRLPRPRPRPISTPRP,-0.24
13,RRIRDRPPRLPRPRPRPKFFPRP,0.136
14,RRIRERPPRLPRPRPRPIYGPRP,0.0231
15,RRIRMRPPRLPRPRPRPGHRPRP,1.35
16,RRIRFRPPRLPRPRPRPEHLPRP,-0.223
17,RRIRWRPPRLPRPRPRPMKRPRP,0.0121
18,RRIRARPPRLPRPRPRPVKPPRP,0.236
19,RRIRNRPPRLPRPRPRPERKPRP,-0.016
20,RRIRHRPPRLPRPRPRPCHFPRP,-0.0384
21,RRIRTRPPRLPRPRPRPGRQPRP,0.0723
22,RRIRMRPPRLPRPRPRPNTEPRP,-0.0533
23,RRIRQRPPRLPRPRPRPSSDPRP,-0.609
24,RRIRVRPPRLPRPRPRPSCGPRP,-0.113
25,RRIRVRPPRLPRPRPRPAWTPRP,-0.0585

row,Sequence,shrunken log2 fold change
1,RRIRSRPPRLPRPRPRPSKKPRP,-0.334
2,RRIRNRPPRLPRPRPRPFPSPRP,-0.0692
3,RRIRIRPPRLPRPRPRPSEWPRP,0.151
4,RRIRIRPPRLPRPRPRPVGIPRP,0.16
5,RRIRCRPPRLPRPRPRPNTYPRP,-0.774
6,RRIRMRPPRLPRPRPRPNEKPRP,0.0356
7,RRIRARPPRLPRPRPRPERVPRP,0.577
8,RRIRARPPRLPRPRPRPEMGPRP,1.12
9,RRIRVRPPRLPRPRPRPDRSPRP,-0.039
10,RRIRGRPPRLPRPRPRPDIHPRP,0.439
11,RRIRMRPPRLPRPRPRPSFPPRP,-0.222
12,RRIRFRPPRLPRPRPRPTCEPRP,0.0933
13,RRIRWRPPRLPRPRPRPPVSPRP,0.289
14,RRIRERPPRLPRPRPRPLGFPRP,-0.118
15,RRIRTRPPRLPRPRPRPKPRPRP,0.692
16,RRIRHRPPRLPRPRPRPICQPRP,-0.113
17,RRIRMRPPRLPRPRPRPEGWPRP,3.15
18,RRIRYRPPRLPRPRPRPNDHPRP,-1.23
19,RRIRNRPPRLPRPRPRPRINPRP,-0.14
20,RRIRYRPPRLPRPRPRPINQPRP,-0.113
21,RRIRTRPPRLPRPRPRPPQYPRP,-0.108
22,RRIRQRPPRLPRPRPRPDAMPRP,0.0556
23,RRIRQRPPRLPRPRPRPDGTPRP,0.103
24,RRIRPRPPRLPRPRPRPFVDPRP,-0.319
25,RRIRSRPPRLPRPRPRPTGSPRP,0.0396

row,Sequence,shrunken log2 fold change
1,RRIRHRPPRLPRPRPRPCGKPRP,-0.00804
2,RRIRWRPPRLPRPRPRPAWKPRP,0.143
3,RRIRPRPPRLPRPRPRPIQTPRP,-0.0617
4,RRIRRRPPRLPRPRPRPQYNPRP,-0.224
5,RRIRWRPPRLPRPRPRPLWCPRP,0.149
6,RRIRGRPPRLPRPRPRPRHFPRP,0.379
7,RRIRDRPPRLPRPRPRPADNPRP,-0.0897
8,RRIRERPPRLPRPRPRPHGAPRP,0.0169
9,RRIRMRPPRLPRPRPRPMVFPRP,0.0369
10,RRIRARPPRLPRPRPRPGLQPRP,0.577
11,RRIRLRPPRLPRPRPRPWKGPRP,0.0434
12,RRIRPRPPRLPRPRPRPGEIPRP,0.21
13,RRIRMRPPRLPRPRPRPLYFPRP,-0.302
14,RRIRMRPPRLPRPRPRPYKFPRP,0.0435
15,RRIRWRPPRLPRPRPRPTFSPRP,-0.0911
16,RRIRDRPPRLPRPRPRPDIPPRP,0.213
17,RRIRYRPPRLPRPRPRPQTEPRP,0.0019
18,RRIRVRPPRLPRPRPRPELCPRP,0.0749
19,RRIRSRPPRLPRPRPRPITGPRP,-0.105
20,RRIRQRPPRLPRPRPRPTYIPRP,-0.0622
21,RRIRRRPPRLPRPRPRPIGLPRP,-0.0953
22,RRIRCRPPRLPRPRPRPRSTPRP,0.0137
23,RRIRARPPRLPRPRPRPYDYPRP,-0.282
24,RRIRYRPPRLPRPRPRPARCPRP,0.0957
25,RRIRFRPPRLPRPRPRPHEWPRP,-0.0176

row,Sequence,shrunken log2 fold change
1,RRIRCRPPRLPRPRPRPCSPPRP,-0.241
2,RRIRDRPPRLPRPRPRPKMPPRP,-0.0144
3,RRIRMRPPRLPRPRPRPAWFPRP,0.634
4,RRIRWRPPRLPRPRPRPAPYPRP,-0.0336
5,RRIRERPPRLPRPRPRPVGEPRP,-0.0892
6,RRIRERPPRLPRPRPRPEKMPRP,-0.421
7,RRIRHRPPRLPRPRPRPRQRPRP,0.162
8,RRIRRRPPRLPRPRPRPHVAPRP,-0.138
9,RRIRQRPPRLPRPRPRPPIEPRP,-0.09
10,RRIRDRPPRLPRPRPRPAIAPRP,0.878
11,RRIRNRPPRLPRPRPRPFPKPRP,0.0299
12,RRIRHRPPRLPRPRPRPVQSPRP,0.0377
13,RRIRNRPPRLPRPRPRPLEIPRP,0.000705
14,RRIRRRPPRLPRPRPRPSLAPRP,0.89
15,RRIRERPPRLPRPRPRPEIMPRP,-0.00047
16,RRIRMRPPRLPRPRPRPASPPRP,0.14
17,RRIRIRPPRLPRPRPRPAPPPRP,0.398
18,RRIRARPPRLPRPRPRPRSWPRP,0.533
19,RRIRPRPPRLPRPRPRPGWSPRP,0.0867
20,RRIRDRPPRLPRPRPRPAGEPRP,0.0114
21,RRIRIRPPRLPRPRPRPIHIPRP,-0.149
22,RRIRNRPPRLPRPRPRPMQFPRP,-0.466
23,RRIRSRPPRLPRPRPRPVMPPRP,-0.103
24,RRIRLRPPRLPRPRPRPNFCPRP,0.101
25,RRIRPRPPRLPRPRPRPMNWPRP,-0.0482

row,Sequence,shrunken log2 fold change
1,RRIRVRPPRLPRPRPRPTHKPRP,0.333
2,RRIRDRPPRLPRPRPRPCFFPRP,0.304
3,RRIRHRPPRLPRPRPRPALTPRP,0.0729
4,RRIRLRPPRLPRPRPRPWGCPRP,0.0644
5,RRIRSRPPRLPRPRPRPNWPPRP,0.278
6,RRIRDRPPRLPRPRPRPQFMPRP,1.04
7,RRIRLRPPRLPRPRPRPEQIPRP,-0.0478
8,RRIRKRPPRLPRPRPRPLNVPRP,0.252
9,RRIRIRPPRLPRPRPRPHASPRP,-0.012
10,RRIRGRPPRLPRPRPRPRDKPRP,0.373
11,RRIRWRPPRLPRPRPRPCQEPRP,-0.15
12,RRIRGRPPRLPRPRPRPVCDPRP,0.959
13,RRIRPRPPRLPRPRPRPGLFPRP,0.162
14,RRIRHRPPRLPRPRPRPAQNPRP,0.212
15,RRIRIRPPRLPRPRPRPAHAPRP,-0.0674
16,RRIRARPPRLPRPRPRPPLFPRP,0.789
17,RRIRLRPPRLPRPRPRPTTIPRP,0.255
18,RRIRQRPPRLPRPRPRPLNAPRP,0.0127
19,RRIRTRPPRLPRPRPRPWKMPRP,-0.0793
20,RRIRGRPPRLPRPRPRPSSEPRP,0.351
21,RRIRTRPPRLPRPRPRPKKKPRP,-0.125
22,RRIRCRPPRLPRPRPRPYMPPRP,-0.404
23,RRIRQRPPRLPRPRPRPTVRPRP,0.0397
24,RRIRLRPPRLPRPRPRPVSAPRP,0.0663
25,RRIRWRPPRLPRPRPRPHKQPRP,-0.0365

row,Sequence,shrunken log2 fold change
1,RRIRKRPPRLPRPRPRPQVNPRP,-0.124
2,RRIRKRPPRLPRPRPRPYDIPRP,-0.119
3,RRIRNRPPRLPRPRPRPTQLPRP,-0.0336
4,RRIRCRPPRLPRPRPRPFFGPRP,0.0829
5,RRIRERPPRLPRPRPRPWSDPRP,-0.0787
6,RRIRLRPPRLPRPRPRPEPHPRP,0.324
7,RRIRIRPPRLPRPRPRPIAKPRP,-0.0645
8,RRIRGRPPRLPRPRPRPHLIPRP,0.205
9,RRIRCRPPRLPRPRPRPGTMPRP,0.0719
10,RRIRCRPPRLPRPRPRPWPQPRP,-0.0463
11,RRIRMRPPRLPRPRPRPWTIPRP,-0.0577
12,RRIRIRPPRLPRPRPRPFPEPRP,-0.45
13,RRIRTRPPRLPRPRPRPQNLPRP,-0.135
14,RRIRSRPPRLPRPRPRPPLAPRP,0.812
15,RRIRQRPPRLPRPRPRPLSMPRP,-0.262
16,RRIRLRPPRLPRPRPRPARIPRP,0.00509
17,RRIRWRPPRLPRPRPRPEKFPRP,0.0209
18,RRIRMRPPRLPRPRPRPMWYPRP,-0.288
19,RRIRNRPPRLPRPRPRPPFEPRP,0.128
20,RRIRPRPPRLPRPRPRPPDNPRP,0.246
21,RRIRMRPPRLPRPRPRPITMPRP,0.0833
22,RRIRCRPPRLPRPRPRPHPHPRP,-0.0639
23,RRIRWRPPRLPRPRPRPFGWPRP,0.118
24,RRIRKRPPRLPRPRPRPVAYPRP,-0.109
25,RRIRKRPPRLPRPRPRPSELPRP,0.141
